Molecular target: PICK1 PDZ domain with an additional C-terminal fusion (NKLQQSAV), oxidized, bCPA-treated dimer (UniProt Q9NRD5)
Assay: crystal structure; dimeric bCPA-treated PICK1 PDZ with compound 1o; space group P3_(2), one disulfide bridged dimer per asymmetric unit; 1.69 Å

Question: “PICK1 PDZ domain with an additional C-terminal fusion (NKLQQSAV), oxidized, bCPA-treated dimer (from UniProt Q9NRD5 1-105) (domain or fragment)” was tested. Which stoichiometry N did it give?
Answer: Its stoichiometry N is 2.
